In patent publication US9629804B2, “Lipid formulations for delivery of messenger RNA” (Shire Human Genetic Therapies, Inc., priority 2013, dated 2017):

Tested on: BHK-21 cells
Test: hSMN-1 western blot of BHK-21 cells transfected with hSMN mRNA
Format: cell-based
Conditions: one microgram mRNA, Lipofectamine 2000, 16-18 hours post-transfection
Description: Standard western blot procedures were followed employing various antibodies that recognizes hSMN protein, such as: (A) anti-SMN 4F11 antibody at 1:1,000 dilution; (B) Pierce PA5-27309a-SMN antibody at 1:1,000 dilution; and (C) LSBio C138149a-SMN antibody at 1:1,000 dilution. For each experiment one microgram of hSMN mRNA was transfected into ˜1×10^6 BHK-21 cells using Lipofectamine 2000. Cells were treated with OptiMem and harvested 16-18 hours post-transfection. Cell lysates were harvested, processed and loaded on to an 8-16% Tris Glycine gel. The gel was transferred using a PVDF membrane and treated with the respective primary antibody. Goat anti-mouse HRP antibody was used as the secondary antibody at 1:10,000 dilution for 45 minutes at room temperature followed by washing and development.

B1: hSMN mRNA: codon-optimized human Survival of Motor Neuron-1 messenger RNA (SEQ ID NO: 4), in vitro transcribed, Cap 1, poly(A) tail (nucleic acid)
chain: GGACAGAUCGCCUGGAGACGCCAUCCACGCUGUUUUGACCUCCAUAGAAGACACCGGGACCGAUCCAGCCUCCGCGGCCGGGAACGGUGCAUUGGAACGCGGAUUCCCCGUGCCAAGAGUGACUCACCGUCCUUGACACGAUGGCCAUGAGCAGCGGAGGCAGCGGCGGAGGAGUGCCCGAGCAGGAGGACAGCGUGCUGUUCAGGAGAGGCACCGGCCAGAGCGAUGACAGCGAUAUCUGGGACGAUACCGCUCUGAUCAAGGCCUACGACAAGGCCGUGGCCAGCUUCAAGCACGCCCUGAAAAACGGCGACAUCUGCGAGACCAGCGGCAAGCCCAAGACAACCCCCAAGAGAAAGCCCGCCAAGAAGAAUAAGAGCCAGAAAAAGAACACCGCCGCCAGCCUGCAGCAGUGGAAGGUGGGCGACAAGUGCAGCGCCAUCUGGAGCGAGGACGGCUGCAUCUACCCCGCCACCAUCGCCAGCAUCGACUUCAAGAGAGAGACCUGCGUGGUCGUGUACACCGGCUACGGCAACAGAGAGGAGCAGAACCUGAGCGACCUGCUGAGCCCCAUUUGUGAGGUGGCCAAUAACAUCGAACAGAACGCCCAGGAGAACGAGAAUGAAAGCCAGGUGAGCACCGACGAGAGCGAGAACAGCAGAUCUCCUGGCAACAAGAGCGACAACAUCAAGCCUAAGUCUGCCCCUUGGAACAGCUUCCUGCCCCCUCCUCCACCCAUGCCCGGACCCAGACUGGGACCCGGAAAACCUGGCCUGAAGUUCAACGGACCACCUCCCCCUCCACCUCCUCCCCCACCUCAUCUCCUGAGCUGCUGGCUGCCACCCUUCCCCAGCGGACCCCCUAUCAUCCCACCACCCCCUCCCAUCUGCCCCGACAGCCUGGACGACGCCGAUGCCCUGGGCAGCAUGCUGAUCAGCUGGUACAUGAGCGGCUACCACACAGGAUACUACAUGGGCUUCAGACAGAACCAGAAGGAGGGCAGAUGCUCCCACUCCCUGAACUGACGGGUGGCAUCCCUGUGACCCCUCCCCAGUGCCUCUCCUGGCCCUGGAAGUUGCCACUCCAGUGCCCACCAGCCUUGUCCUAAUAAAAUUAAGUUGCAUCAAAGCU
modifications: Cap 1, poly(A) tail
  western blot signal for hSMN-1 protein in transfected BHK-21 cells: strong signal for hSMN-1
